Experimental findings from patent publication US20180201657A1 are described below.

Series [1] deals with CD4-TM:CaMbp(M2):LOV:TEVcs(high affinity):Gal4 (original LOV2) (Avena sativa). Kind of series: cell-based or functional assay.
In series [2] the target is CD4-TM:CaMbp(M2):TEVcs:Gal4 (without LOV domain) (UniProt P04386). Kind of series: cell-based or functional assay.
Series [3] concerns the target CD4-TM:CaMbp(M2):eLOV:TEVcs(high affinity):Gal4 (Avena sativa). Kind of series: cell-based or functional assay.
For series [4], the target named is FLARE transcription factor component as used in cultured neurons (Neurexin-3b-derived TM, soma targe (Avena sativa)). Kind of series: cell-based or functional assay.
For series [5], the target named is Aga2p-HA-eLOV-TEVcs(ENLYFQY)-FLAG displayed on yeast (UniProt P32781).

Sequence of CD4-TM:CaMbp(M2):eLOV:TEVcs(high affinity):Gal4 (Avena sativa) (Q2QYY8 other isoform, or with tags, fused parts or gaps): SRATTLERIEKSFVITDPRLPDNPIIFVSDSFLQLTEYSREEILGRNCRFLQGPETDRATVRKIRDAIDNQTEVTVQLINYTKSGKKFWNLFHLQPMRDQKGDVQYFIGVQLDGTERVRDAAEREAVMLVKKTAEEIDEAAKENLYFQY

Consider “CaM-TEV(truncated) (from UniProt P04517 2038-2256)”, for which the results for the high/low Ca^2+ S/N (reporter expression, HEK cells) in series [1], in series [2] and in series [3] were 5, 2 and 16, respectively. Also, the light/dark S/N (reporter expression, HEK cells) in series [1] was determined as 2; in series [3], 23.

In series [4], “FLARE protease component as used in cultured neurons (CaM-TEV) (from UniProt P04517 2038-2256)” yielded a S/N with versus without neuronal activity (mCherry, field stimulation with blue light, 8 minutes) of 11; a light/dark S/N (mCherry reporter, cultured neurons, field stimulation, FIG. 10D) of 17; a light/dark S/N (mCherry reporter, cultured neurons, media change, FIG. 10C) of 121; a mCherry signal with stimulation against light exposed/non-stimulated neurons greater than 10 fold.

MBP-TEV(S219V) fusion, purified: the “anti-Flag/anti-HA staining of yeast after TEV protease treatment in the dark (FACS)” value in series [5] is “Evolved LOV displays superior protection of TEVcs against TEV cleavage in the dark state”.
